The labels stand for the following.
T1: developmental pluripotency-associated 2 (DPPA2) (human (endogenous in NCI-H661), UniProt Q7Z7J5 1-298)
T1 construct: DPPA2, human, endogenous in NCI-H661 non-small cell lung cancer cells; source: endogenous, NCI-H661 whole-cell lysate (IP-MS); endogenous, NCI-H661 double-cross-linked chromatin (RIME)
T1 sequence (looked up): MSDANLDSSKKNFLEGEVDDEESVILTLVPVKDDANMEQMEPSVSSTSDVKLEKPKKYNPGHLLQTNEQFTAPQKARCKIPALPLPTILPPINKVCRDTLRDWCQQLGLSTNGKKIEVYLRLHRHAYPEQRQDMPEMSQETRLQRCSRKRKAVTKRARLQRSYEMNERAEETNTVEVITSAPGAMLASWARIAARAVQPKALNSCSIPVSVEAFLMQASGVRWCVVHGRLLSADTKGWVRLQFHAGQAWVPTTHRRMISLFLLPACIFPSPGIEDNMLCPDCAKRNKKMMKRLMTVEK

B1: recombinant DPPA2-Myc/FLAG protein (natural protein, human, UniProt Q7Z7J5 1-298, looked up)
chain: T1 sequence (looked up)
notes: DPPA2, human, recombinant; The construct is named only in the EMSA legend; source: recombinant
B2: developmental pluripotency-associated 4 (DPPA4) (natural protein, human (endogenous in NCI-H661), UniProt Q7L190 1-304, looked up)
chain: MLRGSASSTSMEKAKGKEWTSTEKSREEDQQASNQPNSIALPGTSAKRTKEKMSIKGSKVLCPKKKAEHTDNPRPQKKIPIPPLPSKLPPVNLIHRDILRAWCQQLKLSSKGQKLDAYKRLCAFAYPNQKDFPSTAKEAKIRKSLQKKLKVEKGETSLQSSETHPPEVALPPVGEPPALENSTALLEGVNTVVVTTSAPEALLASWARISARARTPEAVESPQEASGVRWCVVHGKSLPADTDGWVHLQFHAGQAWVPEKQEGRVSALFLLPASNFPPPHLEDNMLCPKCVHRNKVLIKSLQWE
notes: DPPA4, human, endogenous in NCI-H661 non-small cell lung cancer cells; source: endogenous, NCI-H661 whole-cell lysate (IP-MS); endogenous, NCI-H661 double-cross-linked chromatin (RIME)
B3: recombinant His-DPPA4 protein (natural protein, human, UniProt Q7L190 1-304, looked up)
chain: B2 chain
notes: DPPA4, human, recombinant; The construct is named only in the EMSA legend; also called recombinant DPPA4; source: recombinant

Data set [1] concerns the molecule itself. Nature of the data set: mass photometry; recombinant DPPA2 and DPPA4 in vitro, each on its own and together.
The target in data set [2] is B3. The description is as above. To be noted: both partners purified.
Data set [3] concerns the target T1, developmental pluripotency-associated 2 …. Nature of the data set: affinity purification with mass spectrometry; IP of endogenous DPPA2 or DPPA4 from NCI-H661 whole-cell lysates, species-matched IgG IP control, label-free quantitation, n = 4 per condition. To be noted: partners not purified.

B1: the binding result in data set [1] and in data set [2] was “binds” each time. With B2, the “ratio between DPPA2 and DPPA4 (iBAQ) in the DPPA2 IP” value in data set [3] is over 1. With B3, in data set [1], the binding result is “binds”.

(Values after publication PMC13138344, “Embryonic stem cell factors DPPA2/4 amplify active H3K4me3–H2AK119ub chromatin domains in non-small cell lung cancer” (Genes & Development, 2026).)
